{
  "source": "patent US9579365B2",
  "about": "“Therapeutic ribonucleases” (Quintessence Biosciences, Inc., priority 2008, dated 2017)",
  "molecules": {"B1": {"name": "SEQ ID NO:1: native human RNase 1 with amino acid modifications R4C, G38R, R39G, N67R, G89R, S90R, and V118C (protein)", "chain": "KESCAKKFQRQHMDSDSSPSSSSTYCNQMMRRRNMTQRGCKPVNTFVHEPLVDVQNVCFQEKVTCKRGQGNCYKSNSSMHITDCRLTNRRRYPNCAYRTSPKERHIIVACEGSPYVPCHFDASVEDST"}},
  "key": {"[1]": {"target": "T1, ribonuclease inhibitor (Homo sapiens, UniProt P13489)", "T1 sequence (P13489 1-461)": "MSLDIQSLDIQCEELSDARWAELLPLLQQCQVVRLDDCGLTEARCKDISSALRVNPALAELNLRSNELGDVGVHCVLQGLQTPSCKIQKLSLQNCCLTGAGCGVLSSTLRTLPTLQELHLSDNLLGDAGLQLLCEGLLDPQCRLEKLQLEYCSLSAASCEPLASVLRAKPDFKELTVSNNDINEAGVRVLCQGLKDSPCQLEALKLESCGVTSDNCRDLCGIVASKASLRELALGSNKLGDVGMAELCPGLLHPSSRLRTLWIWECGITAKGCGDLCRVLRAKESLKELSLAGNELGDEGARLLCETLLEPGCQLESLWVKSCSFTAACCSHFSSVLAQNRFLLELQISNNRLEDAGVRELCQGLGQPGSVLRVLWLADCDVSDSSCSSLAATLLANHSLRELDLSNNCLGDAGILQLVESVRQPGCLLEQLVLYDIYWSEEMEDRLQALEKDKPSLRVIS", "assay": "ribonuclease inhibitor evasion", "type": "binding", "details": "compared with QBI-119 and native human RNase 1"}, "[2]": {"tested_on": "RNA", "assay": "ribonuclease (enzyme) activity compared with native human RNase 1", "type": "biochemical"}},
  "data": [
    {"molecule": "B1", "values": [
      {"measurement": "ribonuclease inhibitor evasion, comparison in words", "setting": "[1]", "value": "inferior to QBI-119 and native human RNase 1"},
      {"measurement": "enzyme activity, comparison in words", "setting": "[2]; compared with QBI-119 and native human RNase 1", "value": "inferior to QBI-119 and native human RNase 1"},
      {"measurement": "fraction of the ribonuclease activity of native human RNase1", "setting": "[2]; relative to native human RNase 1", "value": "less than 1%"}
    ]}
  ]
}
